This is an account of results in patent US20260209359A1 (NEXTERA, published 2026).

Substitutions are numbered along the chain they refer to.

The chains are these.
B1: AM1 scDb (bispecific antibody)
chain: DIRVTQSPSSLSASVGDRVTITCRADVHIYWYLNWYQQKPGKAPKLLIYAASSLQSGVPSRFSGSGSGTDFTLTISSLQPEDFATYYCQQSYSTPYTFGQGTKLEIKGGGGSEVQLQQSGPELVKPGASMKISCKASGYSFTGYTMNWVKQSHGKNLEWMGLINPYKGVSTYNQKFKDKATLTVDKSSSTAYMELLSLTSEDSAVYYCARSGYYGDSDWYFDVWGAGTTVTVSSGGGGSGGGGSGGGGSDIQMTQTTSSLSASLGDRVTISCRASQDIRNYLNWYQQKPDGTVKLLIYYTSRLHSGVPSKFSGSGSGTDYSLTISNLEQEDIATYFCQQGNTLPWTFAGGTKLEIKGGGGSQVQLVQSGAEVKKPGASVKVSCKVSGYTLTELSMHWVRQAPGKGLEWMGGFDPEDGETIYAQKFQGRVTMTEDTSTDTAYMELSSLRSEDTAVYYCATDQGSSWGFYWGQGTLVTVSS
notes: VLA-VHB-VLB-VHA, anti-CD3 UCHT1
B2: AM5 scDb (bispecific antibody)
chain: B1 chain with D26S, V27Q, H28S, Y30S, W31S, S91A, S93R, T94I, G369V, T459A
notes: as m68
B3: AM3 scDb (bispecific antibody)
chain: B1 chain with V27H, Y30F
notes: as m68
B4: AM12 scDb (bispecific antibody)
chain: B1 chain with D26S, V27Q, H28N, Y30M, D416Q, S463A
notes: as m68
B5: AM18 scDb (bispecific antibody)
chain: B1 chain with V4L, A13V, D26S, V27E, H28D, Y30R, W31Y, L33V
notes: as m68
B6: AM4 scDb (bispecific antibody)
chain: B1 chain with V27I, H28D, Y30R
notes: as m68
B7: AM16 scDb (bispecific antibody)
chain: DIQLTQSPSSLSASVGDRVTISCRASQSIMTYLNWYQQRPGKAPKLLIYSASRLQSGVPSRFSGSGYGTEFTLTISSLQPEDFATYYCQQSYSTPFTFGPGTKVDIKGGGGSEVQLQQSGPELVKPGASMKISCKASGYSFTGYTMNWVKQSHGKNLEWMGLINPYKGVSTYNQKFKDKATLTVDKSSSTAYMELLSLTSEDSAVYYCARSGYYGDSDWYFDVWGAGTTVTVSSGGGGSGGGGSGGGGSDIQMTQTTSSLSASLGDRVTISCRASQDIRNYLNWYQQKPDGTVKLLIYYTSRLHSGVPSKFSGSGSGTDYSLTISNLEQEDIATYFCQQGNTLPWTFAGGTKLEIKGGGGSQVQLVQSGAEVKKPGASVKVSCKVSGYTLTELSMHWVRQAPGKGLEWMGGFDPEDGETIYAQKFQGRVTMTEDTSTDTAYMELSSLRSEDTAVYYCATDQGSSWGFYWGQGTLVTVSS
notes: as m68
B8: AMC1 scDb (bispecific antibody)
chain: DIRLTQSPSSLSASVGDRVTMTCRASQTVATYVNWYQQKPGRAPKLLMYVTSIRQSEVPSRFSGDGFGTDFTLTINPLQPDDFATYYCQQAYSTPVTFGQGTKLEIKGGGGSEVQLQQSGPELVKPGASMKISCKASGYSFTGYTMNWVKQSHGKNLEWMGLINPYKGVSTYNQKFKDKATLTVDKSSSTAYMELLSLTSEDSAVYYCARSGYYGDSDWYFDVWGAGTTVTVSSGGGGSGGGGSGGGGSDIQMTQTTSSLSASLGDRVTISCRASQDIRNYLNWYQQKPDGTVKLLIYYTSRLHSGVPSKFSGSGSGTDYSLTISNLEQEDIATYFCQQGNTLPWTFAGGTKLEIKGGGGSQVQLVQSGAEVKKPGASVKVSCKVSGPKLYEVSMHWVRQAPGKGLEWMGGFDPEDGETIYAQKFQGRVTMTEDTSTDTAYMELSSLRSEDTAVYYCATDQGASWGFYWGQGTLVTVSS
notes: as m68
B9: AMC6 scDb (bispecific antibody)
chain: B8 chain with A463S
notes: as m68
B10: AMC12 scDb (bispecific antibody)
chain: DIRVTQSPSSLSASVGDRVTITCRASQNIMWYLNWYQQKPGKAPKLLIYAASSLQSGVPSRFSGSGSGTDFTLTISSLQPEDFATYYCQQAYRIPYTFGQGTKLEIKGGGGSEVQLQQSGPELVKPGASMKISCKASGYSFTGYTMNWVKQSHGKNLEWMGLINPYKGVSTYNQKFKDKATLTVDKSSSTAYMELLSLTSEDSAVYYCARSGYYGDSDWYFDVWGAGTTVTVSSGGGGSGGGGSGGGGSDIQMTQTTSSLSASLGDRVTISCRASQDIRNYLNWYQQKPDGTVKLLIYYTSRLHSGVPSKFSGSGSGTDYSLTISNLEQEDIATYFCQQGNTLPWTFAGGTKLEIKGGGGSQVQLVQSGAEVKKPGASVKVSCKVSGPKLYEVSMHWVRQAPGKGLEWMGGFDPEDGETIYAQKFQGRVTMTEDTSTDTAYMELSSLRSEDTAVYYCATDQGASWGFYWGQGTLVTVSS
notes: as m68
B11: AMC10 scDb (bispecific antibody)
chain: B7 chain with S22T, S28N, T31W, R39K, S50A, R53G, Y67S, E70D
notes: as m68
B12: AMC14 scDb (bispecific antibody)
chain: B10 chain with A463S
notes: as m68

The first experiment concerns the target T1, HLA-A*02:01/MAGE-A4^230-239 displayed on cells (MAGE-A4^230-239 pulsed T2 cells; NCI-H1703, A375, THP1, … (human, UniProt P04439 25-365 at identity 0.94); P61769 21-119). The experiment in a line: cell-based or functional assay.
For B1, the “EC50 vs. NCI-H1703 (pM), T-cell specific killing” value (“EC50 vs. NCI-H1703 (pM)” for short) turned out to be 6.4 pM.

Consider B2, for which the “EC50 vs. NCI-H1703 (pM)” value amounted to 6.4 pM.

On to B3, for which the “EC50 vs. NCI-H1703 (pM)” value worked out at 3.4 pM.

For B4, the “EC50 vs. NCI-H1703 (pM)” value was 4.3 pM.

As to B5, the “EC50 vs. NCI-H1703 (pM)” value turned out to be 4.4 pM.

In the case of B6, the “EC50 vs. NCI-H1703 (pM)” value amounted to 3.1 pM.

As to B7, the “EC50 vs. NCI-H1703 (pM)” value worked out at 5.3 pM.

The next experiment concerns the target T1, HLA-A*02:01/MAGE-A4^230-239 displayed …. The experiment in a line: cell-based or functional assay. This is another data set of the same source.
With B8, the “IFNγ EC50 vs. target positive cells (pM)” value was determined as 3.6 pM.

As to B9, the “IFNγ EC50 vs. target positive cells (pM)” value is 8.6 pM.

As for B1, the “IFNγ EC50 vs. target positive cells (pM)” value was found to be 11.8 pM.

Turning to B10, the “IFNγ EC50 vs. target positive cells (pM)” value stood at 6.9 pM.

Consider B2, for which the “IFNγ EC50 vs. target positive cells (pM)” value came to 9 pM.

Consider B3, for which the “IFNγ EC50 vs. target positive cells (pM)” value was determined as 5.8 pM.

As to B4, the “IFNγ EC50 vs. target positive cells (pM)” value is 6.4 pM.

As to B11, the “IFNγ EC50 vs. target positive cells (pM)” value worked out at 1.7 pM.

As to B5, the “IFNγ EC50 vs. target positive cells (pM)” value was determined as 9.5 pM.

Consider B12, for which the “IFNγ EC50 vs. target positive cells (pM)” value is 8.2 pM.

Regarding B6, the “IFNγ EC50 vs. target positive cells (pM)” value is 4.5 pM.

As for B7, the “IFNγ EC50 vs. target positive cells (pM)” value amounted to 12.3 pM.

Another experiment concerns the target T2, HLA-A*02:01/MAGE-A4^230-239, soluble recombinant biotinylated pHLA (human, UniProt P04439 25-299 at identity 0.94); P61769 21-119, biotinylated).
T2 construct: Empty biotinylated HLA-A2 monomers (Tetramer Shop) loaded with synthetic peptide; also called MAGE-A4 pMHC; MAGE-A4-pHLA
Put plainly: ELISA, soluble biotinylated pHLA on neutravidin, scDb, protL-HRP.
Protocol: ELISA plates were coated with 5 μg/mL NeutrAvidin in PBS and incubated 16 h/4° C. (step (a)) and blocked with 5% skim milk powder in PBST for 1 h/room temperature (RT) (step (c)). […] Bound phage particles were detected with an anti-Fd antibody (anti-M13-HRP (Amersham Biosciences)), whereas bound IgG1 and scDb was detected with HRP conjugated protein L (Genscript) (step (i)). […] Plates were developed with TMB solution and read at 450 nm using a microplate reader (step (k)). Between each layer, the plates were washed 3× with PBST (steps (b), (d), (f), (h), and (j)).
The term EC50 denotes the concentration that produces a half-maximal response. As to B8, the EC50 worked out at 0.45 nM.

Consider B9, for which the EC50 was determined as 0.61 nM.

Turning to B1, the EC50 was 0.36 nM.

As to B10, the EC50 came out at 0.25 nM.

B2: the EC50 is 1.03 nM.

For B3, the EC50 stood at 0.48 nM.

In the case of B4, the EC50 was determined as 0.12 nM.

Consider B11, for which the EC50 was determined as 0.46 nM.

As to B5, the EC50 came to 0.51 nM.

In the case of B12, the EC50 was 0.47 nM.

On to B6, for which the EC50 amounted to 0.28 nM.

For B7, the EC50 stood at 1.85 nM.
